# Biological target: T1, LDLR (Homo sapiens, UniProt P01130)
# T1 construct: expressed in transfected cells; host or cells: HEK293 (ATCC CRL-1573)
# Format: binding
# T1 sequence (P01130 22-860): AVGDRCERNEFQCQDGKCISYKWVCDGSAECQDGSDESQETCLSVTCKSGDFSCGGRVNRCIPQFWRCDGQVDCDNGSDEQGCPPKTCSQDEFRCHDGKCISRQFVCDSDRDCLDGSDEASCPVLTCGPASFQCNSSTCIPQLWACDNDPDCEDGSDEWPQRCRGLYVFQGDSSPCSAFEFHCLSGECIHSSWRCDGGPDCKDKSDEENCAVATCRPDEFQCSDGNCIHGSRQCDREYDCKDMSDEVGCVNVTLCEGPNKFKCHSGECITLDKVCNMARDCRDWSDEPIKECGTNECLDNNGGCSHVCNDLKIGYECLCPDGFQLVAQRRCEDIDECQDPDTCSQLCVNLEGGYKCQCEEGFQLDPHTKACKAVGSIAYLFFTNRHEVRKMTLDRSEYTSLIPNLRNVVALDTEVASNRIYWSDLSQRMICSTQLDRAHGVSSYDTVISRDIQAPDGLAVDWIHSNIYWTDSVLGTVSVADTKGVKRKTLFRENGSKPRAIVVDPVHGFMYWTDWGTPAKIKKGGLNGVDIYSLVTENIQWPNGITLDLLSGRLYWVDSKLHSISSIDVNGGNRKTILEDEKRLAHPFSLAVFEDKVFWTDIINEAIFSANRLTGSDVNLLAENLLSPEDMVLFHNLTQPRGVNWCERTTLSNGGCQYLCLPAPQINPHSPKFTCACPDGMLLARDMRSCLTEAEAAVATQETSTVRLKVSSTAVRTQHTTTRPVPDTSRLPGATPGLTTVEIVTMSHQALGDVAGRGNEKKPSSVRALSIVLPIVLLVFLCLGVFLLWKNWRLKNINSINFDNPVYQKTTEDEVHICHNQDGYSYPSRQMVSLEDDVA
substance,measurement,value
BODIPY-FL-labelled LDL: BOPIDY FL complexed LDL purchased from ThermoFisher Scientific; fluorescent ligand for the BRET binding assay,ligand-binding BRET signal (binding to LDLR),concentration-dependent ligand-binding BRET signal
